Test results: patent US20230040568A1 (ALBERT EINSTEIN COLLEGE OF MEDICINE, published 2023)

Tests used:
[1] = target: T1, KIR3DL1 expressed on 3T3 cells (UniProt P43629 22-444, limits assumed); test: FACS, HHLA2-Ig staining of 3T3 cells expressing KIR3DL1 (FIG. 2A)
T1 construct: whole, on cells
Excerpt: (§1) FIG. 2A depicts histograms of 3T3 cell lines expressing KIR3DL1, KIR3DL2, or KIR3DL3 stained with HHLA2-Ig fusion polypeptide (open histograms) or control Ig (shaded histograms). FIG. 2B depicts a plot showing results of an intercellular conjugate assay that indicate 3T3 cell line expressing HHLA2 bound to 3T3 cell line expressing KIR3DL3, but not the control 3T3 cell line. FIG. 2C depicts histograms of a 3T3 cell line expressing HHLA2 bound by the DO domain (red) and the whole extracellular portion (red) of KIR3DL3.
(§2) Subsequent studies reported that HHLA2 is over-expressed in various types of human cancers (Cheng 2018; Cheng 2017; Koirala 2016; Janakiram 2015). To test the binding of HHLA2 to KIR3DL1, KIR3DL2, and KIR3DL3, 3T3 cell lines stable expressing cell surface KIR3DL1, KIR3DL2, or KIR3DL3 were generated.

[2] = target: T2, KIR3DL2 expressed on 3T3 cells (UniProt P43630 22-455, limits assumed); test: FACS, HHLA2-Ig staining of 3T3 cells expressing KIR3DL2 (FIG. 2A)
T2 construct: whole, on cells
T2 sequence (P43630 22-455 limits assumed): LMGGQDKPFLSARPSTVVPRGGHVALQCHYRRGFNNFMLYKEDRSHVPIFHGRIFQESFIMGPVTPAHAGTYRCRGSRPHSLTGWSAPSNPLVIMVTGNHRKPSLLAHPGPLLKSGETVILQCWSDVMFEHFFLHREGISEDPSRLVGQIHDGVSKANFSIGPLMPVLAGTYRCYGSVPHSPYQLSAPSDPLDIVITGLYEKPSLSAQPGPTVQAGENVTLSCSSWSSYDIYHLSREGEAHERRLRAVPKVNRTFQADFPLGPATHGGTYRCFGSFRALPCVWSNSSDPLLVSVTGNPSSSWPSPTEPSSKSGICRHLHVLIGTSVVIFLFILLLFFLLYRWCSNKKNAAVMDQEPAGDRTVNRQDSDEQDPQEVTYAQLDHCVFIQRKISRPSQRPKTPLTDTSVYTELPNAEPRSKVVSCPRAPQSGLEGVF
Excerpt: as §1, §2

[3] = target: T3, KIR3DL3 expressed on cells (3T3 cell line expressing KIR3DL3); KIR3DL3+ NK92 cells; primary KIR3DL3+ NK cells … (human, UniProt Q8N743 26-410); test: FACS, HHLA2-Ig staining of 3T3 cells expressing KIR3DL3 (FIG. 2A)
T3 construct: also called KIR3DL3-expressing 3T3 cells; KIR3DL3 WT
T3 sequence (Q8N743 26-410 H321N): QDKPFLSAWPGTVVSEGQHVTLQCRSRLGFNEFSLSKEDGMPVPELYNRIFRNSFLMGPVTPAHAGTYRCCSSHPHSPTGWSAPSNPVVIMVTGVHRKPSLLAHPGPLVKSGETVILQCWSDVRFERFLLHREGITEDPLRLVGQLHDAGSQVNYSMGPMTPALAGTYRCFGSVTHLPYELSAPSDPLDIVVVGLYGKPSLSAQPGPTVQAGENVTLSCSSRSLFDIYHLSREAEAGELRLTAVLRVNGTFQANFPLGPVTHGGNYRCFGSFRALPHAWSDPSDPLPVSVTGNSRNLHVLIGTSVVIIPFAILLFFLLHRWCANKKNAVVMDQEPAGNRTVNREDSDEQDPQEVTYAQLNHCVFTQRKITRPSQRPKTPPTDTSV
Excerpt: as §1, §2

T1 sequence (P43629 22-444 limits assumed): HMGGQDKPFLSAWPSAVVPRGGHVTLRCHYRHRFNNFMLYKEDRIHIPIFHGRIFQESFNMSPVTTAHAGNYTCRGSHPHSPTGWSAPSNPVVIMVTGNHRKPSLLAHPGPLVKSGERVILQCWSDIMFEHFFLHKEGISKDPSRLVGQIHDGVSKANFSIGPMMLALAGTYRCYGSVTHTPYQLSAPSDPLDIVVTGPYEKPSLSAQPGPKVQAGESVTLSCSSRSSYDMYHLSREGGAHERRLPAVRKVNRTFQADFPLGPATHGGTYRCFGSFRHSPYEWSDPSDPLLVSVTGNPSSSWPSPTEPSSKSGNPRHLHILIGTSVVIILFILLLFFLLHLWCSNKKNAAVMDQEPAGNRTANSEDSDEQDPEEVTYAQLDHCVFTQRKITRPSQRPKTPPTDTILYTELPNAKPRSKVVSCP

- binding result [1]: no binding
- binding result [2]: no binding
- binding result [3]: binds
B1: HHLA2-Ig fusion polypeptide (Fc fusion, UniProt Q9UM44 23-344, looked up)
chain: IFPLAFFIYVPMNEQIVIGRLDEDIILPSSFERGSEVVIHWKYQDSYKVHSYYKGSDHLESQDPRYANRTSLFYNEIQNGNASLFFRRVSLLDEGIYTCYVGTAIQVITNKVVLKVGVFLTPVMKYEKRNTNSFLICSVLSVYPRPIITWKMDNTPISENNMEETGSLDSFSINSPLNITGSNSSYECTIENSLLKQTWTGRWTMKDGLHKMQSEHVSLSCQPVNDYFSPNQDFKVTWSRMKSGTFSVLAYYLSSSQNTIINESRFSWNKELINQSDFSMNLMDLNLSDSGEYLCNISSDEYTLLTIHTVHVEPSQETASHN
notes: also called HHLA2 protein; not shown: Ig part
